# Data published in the nanobody polyreactivity screen of Harvey et al. (2022).
# Assay: yeast display, Sf9 membrane polyspecificity reagent, FACS + sequencing; frameworks hold sequencing errors
# How it was run: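 After 36–48 hours of galactose induction, yeast (Saccharomyces cerevisiae BJ5465) displaying a synthetic nanobody library were stained at 4 °C for 1 hour with 10% biotinylated, detergent-solubilized Sf9 membrane reagent. Streptavidin microbeads enriched the stained cells before FACS sorting into low and high (top ~1%) gates on anti-HA and streptavidin fluorescence. Each clone's polyreactivity label reflects its gate of origin.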
row,Sequence,polyreactivity (PSR sort gate)
1,QVQLVESAGGIVQAGGSLRLSCAASGFTFSRYAKGWNRPEPGKEREWVAAMTSSGGSTYYADSVKGRFTISRDNAKNTVYLQMNSLKPEDTAVYYCNARASGRTYRVDYWGQGTQVTVSS,high polyreactivity
2,QVQLVESAGGLDQARGSLRLSCAASGFTFIRYAMGWYRQAPGKESELVATITRSGGSTYYADSVKGRFTISRDNAKNTVYLQMNSLKPEDTAVYYCAKRGTLGSYYYWGQGTQVTVSS,high polyreactivity
3,QVQLVESAGGLLQAGGTLRLICAASGRIFTNYAMGWYRQAPGKERELVAAINWSGSRTFYADSVMGRFTISRDNAKYTVYLQLNSLKPEDTAVYSCAADALRKPKIALYDYWGQGTQVTVSS,high polyreactivity
4,QVQLVESAGGLVHAGGSLRLSCAASGFIFWYYAMGWDRQSPGKERELVASISRGGDSTYYADSVKGRFTISRDNAKNTVYVQMNSLKPVDTAVYYCNARGRYRKSERRAFDYWGQGTQVTVSS,high polyreactivity
5,QVQLVESAGGLVHAGGSLRLSCAASGFNFGFNAMGWDRQAPGKERELVAVISARGGRTYYADSVKGRFTISRDNAKNSVYLQMNSLKPEDSAVYYSAADDFFRYFFTHWVGDDYWGQGTQVSVSS,low polyreactivity
6,QVQLVESAGGLVHAGGSLRLSCADSGSTIGDNAMGWYRQAPGKEREFVASISWSGASTYYADSVKGRFTISRDNAKNTVYLQMNSLKPEDTAVYFCAVYYSYYSHLYHLLFYYWGQATQVTVSS,low polyreactivity
7,QVQLVESAGGLVHAGGSLSLSCAASAILGNNAMGWYRQAPRKQRELVAAISARGGRTYYADSVKGRFTISRDNAKNTVYLQMNSLKPEDTAVYYCATLETSGVNYWGQGTQVTVSS,high polyreactivity
8,QVQLVESAGGLVQAGASLRLSCAASGRIFVRNAMGWYRQAPGKEREMVADITNGGSTNYADSVKGRFTISRDNAKNTVYLQKNRLNPEDTAVYYCNADGFVYDLRARPGWVDYWGQGTQVTVSS,low polyreactivity
9,QVQLVESAGGLVQAGGILRLSCAASGSIFVGYDMGWSRQAPGKERELVAAITSSGGGSTYYADSVKGRFTISRDNAKNTVYLQMNSLKPEDTAVYYCAARTSLWWFLKYDYWGQGTQVTVSS,low polyreactivity
10,QVQLVESAGGLVQAGGRLRLSCAASGFTFVYYVMGWYRQAPGKERELVAAISNSGGSTYYADSVKGRFTISRDNAKNSVYLEMNSLKPEDTAVYYCAAPPGGGKYRGYYYWGQGTQVTVSS,high polyreactivity
11,QVQLVESAGGLVQAGGRLRLSCAASGITISYYAMGWYRQAPGKERELVASISWRGGGTYYADSVKGRFTISRDNAKNTVYLQMNSVKPEDTAVYYCAADEKLYITRYDYWGQGTQVTVSS,low polyreactivity
12,QVQLVESAGGLVQAGGRLRLSCAASGRTFTYYAMGWYRQAPGKERELVAAISFSGGRTYYADSVKGRFTISRDYAKNTVYLQMNSLKPEDTAVYYCAAENYYTRYRDRDYWGQGTQVTVSS,high polyreactivity
13,QVQLVESAGGLVQAGGRLRVSCAASGFIFLYYPMGWYRKAPGKEREFVAAISWSDGNTYYADSVKGRFTISRDTAKNTDYLQMNSLKREDTAVYYCNARDADAWASGYDYWGQGTQLTVSS,low polyreactivity
14,QVQLVESAGGLVQAGGSHRLSCAASASIFDGYAMGWYRQAPGKEREVVAAIRRSGVDTYYADSVKGRFTISRDNAKTTVYLQMNSLKPEDTAVDYCAADSYPSPNFEDNYWRQGTQVTVSS,low polyreactivity
15,QVQLVESAGGLVQAGGSHRLSCAPSGRIFGGNAMGWYRRAPGKERELVAGISRRGGSTYYADSVKGRFTITRDNAKNTVHLQMNSLKPEDTAVYYCNAYYRYSVFAEKYDYWGEGTQVTVSS,high polyreactivity
16,QVQLVESAGGLVQAGGSLRIRCAASVSTFGVYALGWYRQAPGKERELVAAISSSTGSTYYADSVKGRFTISRDNAKNTVYLQMNSLKPEDTGVYYCAAAGYGKVRGDYWGLGTQVTVSS,low polyreactivity
17,QVQLVESAGGLVQAGGSLRISCAASGSIFYYYAMGWYRQAPGKERELLAAIDSGGSTYYADSVKGRFTISRDNAKNTVYLQMNSLKPEDTAVYYCAADTYWFVYYGYDYWGQGTQVTVSS,low polyreactivity
18,QVQLVESAGGLVQAGGSLRLMCAASGNTLSWYALGWYRQAPGKERELVAVITSGGSTNYADSVKGRFTISRDYAKNTVYLQMNSLKPEDTAVYYCNRRPYGFDEFDYWGQGTQVTVSS,low polyreactivity
19,QVQLVESAGGLVQAGGSLRLSCAASAFTFFDYVMGWYRQAPGKERELVAAISRNVGSTYYADSVKGRFTISRDNAKNTVYLQMNSLKPEDTAVYYCAGEPPPYEYDYWGQGTQVTVSS,high polyreactivity
20,QVQLVESAGGLVQAGGSLRLSCAASAFTFRWYDMGWYRQAPGKERELVAAIDASDGSTYYSDSVKGSFTISRDNPKNTVYLPMNSLKPEDTAVYYCATRLRGGGKGYYYWGQGTQVTVSS,high polyreactivity
21,QVQLVESAGGLVQAGGSLRLSCAASGFIFVRNAMGWYRPAPGKVRELVAAISRSGGRTYNADSVKGRFTISRDNAKNTVYLQMNSLKPEDTAVYYCAARSGYFRSRFDYWGQGTQVTVSS,high polyreactivity

row,Sequence,polyreactivity (PSR sort gate)
1,QVQLVESAGGLVQAGGSLRLSCAASGFTFKSNAMGWYRQAPGKEREMVAAIDSRGDRTYYADSVKGRFTISRDNAKNTVYLQMNSLKPEDTAVYYCATKWRTYWSSGEYWGQGTQVTVSS,high polyreactivity
2,QVQLVESAGGLVQAGGSLRLSCAASGFTFLYYAMGWYRKAPGKEREFVAAISYTGGSTYYADSVKGRFTISRDNAKNTVYLQMNSLKPEDTAVYYCAVDGYYWFGSIFDYWGQGTQVTVSS,low polyreactivity
3,QVQLVESAGGLVQAGGSLRLSCAASGITFAWYAMGWYRQAPGKERELVAAITRGGGSTYYADSVKGRFTISRDNAKNTVYLQMNSLKPEATAVYYCAARPYSYPYGYWGQGTQVTVSS,low polyreactivity
4,QVQLVESAGGLVQAGGSLRLSCAASGITFKYNAMGWYRQAPGKERELVAAISKGGGSTYYADSVKGRFTISRDNAKNTVYLQMNSLKPEDTAVYYCAARRWYRFDYWGQGTQVTVSS,high polyreactivity
5,QVQLVESAGGLVQAGGSLRLSCAASGITFSYYTMGWYRQAPGKEREFVATIRRGGSTNYADSVKGRFTISRDNAKNTVYLQMNSLKPEDTAVYYCAADLRRNGWGFDYWGQGTQVTVSS,high polyreactivity
6,QVQLVESAGGLVQAGGSLRLSCAASGITFYEYVMGWYRQAPGKERELVASIDWSGGGTYYADSVKGRFTISRDNAKNTVYLQMNSLKPEDTAVYYCNADYFDYSRPRYDYWGQGTQVTVSS,low polyreactivity
7,QVQLVESAGGLVQAGGSLRLSCAASGITHHHNAIGWSRQAPRKERELVAAITSNGGSTYYAVSVKGRFTISRDHAKNSVYLQINSLKPEDTAVYYCARDSKRLARYYYWGQGTQVTVSS,low polyreactivity
8,QVQLVESAGGLVQAGGSLRLSCAASGLTFTGNAIGWYRQAPGKERQCVAAIRWSAGSTYYADSVKGRVTISRDNAKNTVYLQMNSLKPEDTAVYYCNAALNVSGHYPNDYWGQGTQVTVSS,low polyreactivity
9,QVQLVESAGGLVQAGGSLRLSCAASGMILWRYSMGWYRKAPGKEMEFVAAISYRAGSTYYADSVKGRFTISRDNAKNTVYLQMNSLKPEDTAVYYCAAGLKRFGSYPWLKSGMGYWGQGTQVTVSS,high polyreactivity
10,QVQLVESAGGLVQAGGSLRLSCAASGNTFANYAMGWDRQAPGKERELVAAITRGGSTFYADSVKGRFTISRDNAKNTVYLQMNSLKPEDSAVYYCAKGYGTNTRYYHRYRYDYWGQGTQVTVSS,high polyreactivity
11,QVQLVESAGGLVQAGGSLRLSCAASGNTFWFYGMGWYRPAPGKVRELVAAITSGGSTDYPDSVKGRCTISRDNAKNTVYLQMNSLKPEDTALYYCAAEPVAYYGSSYGYWGQGTQVTVSS,low polyreactivity
12,QVQLVESAGGLVQAGGSLRLSCAASGRIFKFYTMGWYRQAPGKERELVAAISSSDGSTHYADSVKGRFTISRDNAKNTVYLQMNSLKPEDTAVYYCAAQGGRNRGYRYYWGQGTQVTVSS,high polyreactivity
13,QVQLVESAGGLVQAGGSLRLSCAASGRIFLYNAMGWYRQAPGKERELVAVISSNGGRTYYADSVKGRFTISRDNAKNTVYLQMNSLKPEDTAVYYCAAVQHYVTHMDYWGQGTQVTVSS,low polyreactivity
14,QVQLVESAGGLVQAGGSLRLSCAASGRIFRSNAMGWYRQAPGQERELVAAINNRDTSTYADSVKGRFTISRDNAKNTVYLQMNSLKPEDTAVFYCAARYQYYSTYGVTLDYWGQGSQVTVSS,low polyreactivity
15,QVQLVESAGGLVQAGGSLRLSCAASGRIFSRYAMGWYRQAPGKERELVAAITQSGTSTYYADSVKGRFTISRDNAKNTVYLQMNSLKPEDTAVYYCNAYRQYRYDYWGQGTQVTVSS,low polyreactivity
16,QVQLVESAGGLVQAGGSLRLSCAASGRIFVTNAMGLYRQAPGKEREFVAGISFSGDGRTYYADSVKGRFTISRDYAKNSVYFQMNSLKPEDTAVYYCAAPHRSRTHELDYWGLGTQVTVSS,low polyreactivity
17,QVQLVESAGGLVQAGGSLRLSCAASGRNFYYYAMGWYRQAPGKERELVAAISIGGITYADSVKGRFTISRDNAKNTVYLQMNRLKPEDTAVYYCAATARQSRGRYYWGQGTQVTVSS,low polyreactivity
18,QVQLVESAGGLVQAGGSLRLSCAASGRTFFRNAMGWYRQAPGKERELVAGITASGGNTYYADSVKGRFTISRDNAKNTVYLQMNSLKPEDTAVYFCNAVYSLARITRAGYGYWGQGPQVTVSS,high polyreactivity
19,QVQLVESAGGLVQAGGSLRLSCAASGRTFGRKAMVWSRQAPGERELGAVISRGGSTYYADTVKGRFTISRDNAKNTVYLQMNILKPEDTAVYYCNADTVYTRTGPYDYWGQGTQVTVSS,low polyreactivity
20,QVQLVESAGGLVQAGGSLRLSCAASGRTFRTYAMGWYRPAPVKERELVAAITSGGNTYYADSVKGRFTISRDNAKNTVYLQMNSLKPEDTAVYYCAAVQYFKVYYWGQGTQVTVSS,high polyreactivity
